Consider one substance from patent US20120282700A1.

One assay addresses M13/HRP antibody. Description: depletion of M13/HRP antibody (0.45-9.0 µg/mL) from the supernatant by pSDLBA3b cells, TMB read-out, Langmuir linear regression.
The target of assay [1] is Alexa Fluor 488 conjugated rabbit anti-mouse antibody (Invitrogen; A-11059). Description: flow cytometry, 2 µg Alexa Fluor 488 rabbit anti-mouse antibody on Sdlba3b-expressing L. lactis cells; control cells (pNZ8148) 2.26.
For assay [2] the target is unchanged. Nature of the assay: flow cytometry with Alexa Fluor 488 rabbit anti-mouse antibody after 30 min in simulated gastric juice (pepsin, pH 2.0 or 4.0), against incubation at pH 7.0.

Regarding “Sdlba3b fusion protein (encoded by pSDLBA3b), immunoglobulin-binding B domain displayed on the surface of L. lactis (from UniProt P38507 212-269)”, in the assay with M13/HRP antibody, the maximum amount of adsorbed antibody (µg per 1×10^8 cells) came out at 0.146. In addition, in assay [1], the mean fluorescence intensity is 151. In assay [2], this substance came in with a loss of fluorescence intensity of under 14%.
